pEC50: −log10 of the molar value.
Legend:
[1] = target: rat Nogo-A (rat) (UniProt Q9JK11); experiment: cell-based or functional assay
[2] = target: human Nogo-A d20plus region (human aa position 543-866), recombinantly produced in E. coli (human) (UniProt Q9NQC3); experiment: ELISA, coated d20plus (human, as read from the context), internal standard
human Nogo-A d20plus region (human aa position 543-866), recombinantly produced in E. coli (human), sequence (Q9NQC3 543-866 limits assumed): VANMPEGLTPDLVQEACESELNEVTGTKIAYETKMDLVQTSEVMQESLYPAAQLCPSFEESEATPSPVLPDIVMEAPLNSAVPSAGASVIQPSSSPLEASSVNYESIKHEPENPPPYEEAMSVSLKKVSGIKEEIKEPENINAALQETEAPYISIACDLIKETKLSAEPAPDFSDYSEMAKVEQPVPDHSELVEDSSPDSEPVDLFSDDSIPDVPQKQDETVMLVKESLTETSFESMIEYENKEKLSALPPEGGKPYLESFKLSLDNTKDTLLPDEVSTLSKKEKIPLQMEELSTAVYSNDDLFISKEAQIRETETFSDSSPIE

rat Nogo-A (rat), sequence (Q9JK11 whole entry): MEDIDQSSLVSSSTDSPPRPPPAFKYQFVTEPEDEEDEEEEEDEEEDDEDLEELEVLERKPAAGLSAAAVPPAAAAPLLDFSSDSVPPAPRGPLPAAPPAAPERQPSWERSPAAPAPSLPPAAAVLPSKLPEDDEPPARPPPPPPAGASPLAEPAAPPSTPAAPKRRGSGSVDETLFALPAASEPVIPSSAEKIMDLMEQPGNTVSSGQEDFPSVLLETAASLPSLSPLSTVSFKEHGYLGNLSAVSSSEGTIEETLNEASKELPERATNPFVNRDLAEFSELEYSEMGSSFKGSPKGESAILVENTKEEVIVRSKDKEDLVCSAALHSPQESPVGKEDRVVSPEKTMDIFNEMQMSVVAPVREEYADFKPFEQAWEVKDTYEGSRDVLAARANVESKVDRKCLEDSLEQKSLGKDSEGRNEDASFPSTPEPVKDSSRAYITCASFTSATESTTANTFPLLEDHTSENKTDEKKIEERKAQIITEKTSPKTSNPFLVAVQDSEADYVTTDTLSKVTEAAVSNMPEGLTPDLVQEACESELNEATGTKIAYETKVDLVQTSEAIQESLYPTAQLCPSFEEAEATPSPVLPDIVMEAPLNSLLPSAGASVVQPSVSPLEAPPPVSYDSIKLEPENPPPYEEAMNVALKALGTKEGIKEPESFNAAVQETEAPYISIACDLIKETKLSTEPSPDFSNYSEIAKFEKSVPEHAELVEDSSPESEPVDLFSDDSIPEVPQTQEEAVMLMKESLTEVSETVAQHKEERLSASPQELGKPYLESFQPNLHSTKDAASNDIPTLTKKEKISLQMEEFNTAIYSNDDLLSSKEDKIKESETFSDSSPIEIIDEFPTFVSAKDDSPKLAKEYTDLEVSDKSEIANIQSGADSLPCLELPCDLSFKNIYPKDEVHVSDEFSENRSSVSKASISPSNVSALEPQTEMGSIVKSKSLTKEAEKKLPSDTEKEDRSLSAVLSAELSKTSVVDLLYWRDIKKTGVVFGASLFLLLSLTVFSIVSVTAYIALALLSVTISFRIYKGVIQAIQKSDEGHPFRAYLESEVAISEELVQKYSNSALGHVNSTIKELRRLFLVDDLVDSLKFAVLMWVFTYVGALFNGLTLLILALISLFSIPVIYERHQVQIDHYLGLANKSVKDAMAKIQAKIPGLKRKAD

## murine monoclonal anti-Nogo-A antibody 11C7
[1]
  IC50 for stimulating neurite outgrowth of N1E-115 cells in presence of rat CNS extract: 19.3 nM
[2]
  pEC50: 9.85

— patent publication US20230399390A1
